# Measured values from IntAct's records for PubMed 26688217.
# B1: SUN domain-containing protein 2 (Mus musculus), Q8BJS4-3 (parent)
# chain: MSRRSQRLTRYSQDDNDGGSSSSGASSVAGSQGTVFKDSPLRTLKRKSSNMKHLSPAPQLGPSSDSHTSYYSESVVRESYIGSPRAVSLARSALLDDHLHSEPYWSGDLRGRRRRGTGGSESSKANGLTAESKASEDFFGSSSGYSSEDDLAGRLFGLLYWWIGTTWYRLTTAASLLDVFVLTRSRHFSLNLKSFLWFLLLLLLLTGLTYGAWHFYPLGLQTLQPAVVSWWAAKESRKQPEVWESRDASQHFQAEQRVLSRVHSLERRLEALAADFSSNWQKEAIRLERLELRQGAAGHGGGSSLSHEDALSLLEGLVSRREATLKEDLRRDTVAHIQEELATLRAEHHQDSEDLFKKIVQASQESEARVQQLKTEWKSMTQEAFQESSVKELGRLEAQLASLRQELAALTLKQNSVADEVGLLPQKIQAARADVESQFPDWIRQFLLGDRGARSGLLQRDEMHAQLQELENKILTKMAEMQGKSAREAAASLGQILQKEGIVGVTEEQVHRIVKQALQRYSEDRIGMVDYALESGGASVISTRCSETYETKTALLSLFGIPLWYHSQSPRVILQPDVHPGNCWAFQGPQGFAVVRLSARIRPTAVTLEHVPKALSPNSTISSAPKDFAIFGFDEDLQQEGTLLGTFAYDQDGEPIQTFYFQASKMATYQVVELRILTNWGHPEYTCIYRFRVHGEPAH
# Variants of: B1
# Settings: with Syne2, Q6ZWQ0-1
row,effect of a mutation on the interaction,Variant
1,disrupting interaction strength,L400A;L403A
